The text below walks through data of patent US20140087995A1 (published 2014).

Numbered stars: 1 amine (or outer) side, 2 acyl side, 3 side chain; on linkers, the order of the positions; unused ones are H or OH. Bridge positions count the residues as written; N and C are the ends. Side chains are listed from the residue outwards. Ends that are not written are not given here. * marks the point of attachment. C20 diacid = O=C(O)CCCCCCCCCCCCCCCCCCC(=O)*; γGlu = O=C(O)[C@H](CCC(=O)[*:2])N[*:1]; AEEA = NCCOCCOCC(=O)O

In this test the target is T1, human calcitonin receptor (human, UniProt P30988 25-474).
T1 sequence (looked up): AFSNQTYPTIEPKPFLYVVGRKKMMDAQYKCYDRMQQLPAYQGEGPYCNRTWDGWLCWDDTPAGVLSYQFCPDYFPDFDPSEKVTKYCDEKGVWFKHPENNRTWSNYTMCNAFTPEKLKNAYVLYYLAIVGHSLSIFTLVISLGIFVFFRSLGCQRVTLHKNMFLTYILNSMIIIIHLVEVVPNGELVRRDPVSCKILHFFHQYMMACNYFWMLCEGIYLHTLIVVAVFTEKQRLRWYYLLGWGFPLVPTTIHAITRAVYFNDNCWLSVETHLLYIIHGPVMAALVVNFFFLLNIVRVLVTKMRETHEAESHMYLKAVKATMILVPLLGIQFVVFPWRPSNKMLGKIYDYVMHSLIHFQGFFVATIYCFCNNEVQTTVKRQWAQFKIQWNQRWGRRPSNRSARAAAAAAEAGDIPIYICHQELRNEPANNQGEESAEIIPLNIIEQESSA
The test can be described thus: cell-based or functional assay.

B1: N^ε1-[2-[2-[2-[[2-[2-[2-[[(4S)-4-carboxy-4-(19-carboxynonadecanoylamino)butanoyl]amino]ethoxy]ethoxy]acetyl]amino]ethoxy]ethoxy]acetyl]-[Arg17,Pro21,Pro27,Glu35 … (peptide)
peptide: K([AEEA-AEEA-γGlu-C20 diacid])CNTATCATQRLANFLRHSSPNFGAIPSSTNVGSETY-NH2
modifications: disulfide 2-7; N-terminus assumed
SMILES: CC[C@H](C)[C@H](NC(=O)[C@H](C)NC(=O)CNC(=O)[C@H](Cc1ccccc1)NC(=O)[C@H](CC(N)=O)NC(=O)[C@@H]1CCCN1C(=O)[C@H](CO)NC(=O)[C@H](CO)NC(=O)[C@H](Cc1c[nH]cn1)NC(=O)[C@H](CCCNC(=N)N)NC(=O)[C@H](CC(C)C)NC(=O)[C@H](Cc1ccccc1)NC(=O)[C@H](CC(N)=O)NC(=O)[C@H](C)NC(=O)[C@H](CC(C)C)NC(=O)[C@H](CCCNC(=N)N)NC(=O)[C@H](CCC(N)=O)NC(=O)[C@@H](NC(=O)[C@H](C)NC(=O)[C@@H]1CSSC[C@H](NC(=O)[C@@H](N)CCCCNC(=O)COCCOCCNC(=O)COCCOCCNC(=O)CC[C@H](NC(=O)CCCCCCCCCCCCCCCCCCC(=O)O)C(=O)O)C(=O)N[C@@H](CC(N)=O)C(=O)N[C@@H]([C@@H](C)O)C(=O)N[C@@H](C)C(=O)N[C@@H]([C@@H](C)O)C(=O)N1)[C@@H](C)O)C(=O)N1CCC[C@H]1C(=O)N[C@@H](CO)C(=O)N[C@@H](CO)C(=O)N[C@H](C(=O)N[C@@H](CC(N)=O)C(=O)N[C@H](C(=O)NCC(=O)N[C@@H](CO)C(=O)N[C@@H](CCC(=O)O)C(=O)N[C@H](C(=O)N[C@@H](Cc1ccc(O)cc1)C(N)=O)[C@@H](C)O)C(C)C)[C@@H](C)O
notes: h-amylin derivative; disulfide bridge and C-terminal amide as told for human amylin; also called compound 25
Turning to B1, the “hCTR funct. EC50” value was found to be 10 nM.

B2: N^ε1-[(4S)-4-carboxy-4-(19-carboxynonadecanoylamino)butanoyl]-[Arg17,Pro21,Pro27,Glu35]-h-amylin (peptide)
peptide: K([γGlu-C20 diacid])CNTATCATQRLANFLRHSSPNFGAIPSSTNVGSETY-NH2
modifications: disulfide 2-7; N-terminus assumed
SMILES: CC[C@H](C)[C@H](NC(=O)[C@H](C)NC(=O)CNC(=O)[C@H](Cc1ccccc1)NC(=O)[C@H](CC(N)=O)NC(=O)[C@@H]1CCCN1C(=O)[C@H](CO)NC(=O)[C@H](CO)NC(=O)[C@H](Cc1c[nH]cn1)NC(=O)[C@H](CCCNC(=N)N)NC(=O)[C@H](CC(C)C)NC(=O)[C@H](Cc1ccccc1)NC(=O)[C@H](CC(N)=O)NC(=O)[C@H](C)NC(=O)[C@H](CC(C)C)NC(=O)[C@H](CCCNC(=N)N)NC(=O)[C@H](CCC(N)=O)NC(=O)[C@@H](NC(=O)[C@H](C)NC(=O)[C@@H]1CSSC[C@H](NC(=O)[C@@H](N)CCCCNC(=O)CC[C@H](NC(=O)CCCCCCCCCCCCCCCCCCC(=O)O)C(=O)O)C(=O)N[C@@H](CC(N)=O)C(=O)N[C@@H]([C@@H](C)O)C(=O)N[C@@H](C)C(=O)N[C@@H]([C@@H](C)O)C(=O)N1)[C@@H](C)O)C(=O)N1CCC[C@H]1C(=O)N[C@@H](CO)C(=O)N[C@@H](CO)C(=O)N[C@H](C(=O)N[C@@H](CC(N)=O)C(=O)N[C@H](C(=O)NCC(=O)N[C@@H](CO)C(=O)N[C@@H](CCC(=O)O)C(=O)N[C@H](C(=O)N[C@@H](Cc1ccc(O)cc1)C(N)=O)[C@@H](C)O)C(C)C)[C@@H](C)O
notes: h-amylin derivative; disulfide bridge and C-terminal amide as told for human amylin; also called compound 27
B2: the “hCTR funct. EC50” value was 3 nM.

B3: N^ε1-[2-[2-[2-[[(4S)-4-carboxy-4-(19-carboxynonadecanoylamino)butanoyl]amino]ethoxy]ethoxy]acetyl]-[Arg17,Pro21,Pro27,Pro34]-h-amylin (peptide)
peptide: K([AEEA-γGlu-C20 diacid])CNTATCATQRLANFLRHSSPNFGAIPSSTNVGPNTY-NH2
modifications: disulfide 2-7; N-terminus assumed
SMILES: CC[C@H](C)[C@H](NC(=O)[C@H](C)NC(=O)CNC(=O)[C@H](Cc1ccccc1)NC(=O)[C@H](CC(N)=O)NC(=O)[C@@H]1CCCN1C(=O)[C@H](CO)NC(=O)[C@H](CO)NC(=O)[C@H](Cc1c[nH]cn1)NC(=O)[C@H](CCCNC(=N)N)NC(=O)[C@H](CC(C)C)NC(=O)[C@H](Cc1ccccc1)NC(=O)[C@H](CC(N)=O)NC(=O)[C@H](C)NC(=O)[C@H](CC(C)C)NC(=O)[C@H](CCCNC(=N)N)NC(=O)[C@H](CCC(N)=O)NC(=O)[C@@H](NC(=O)[C@H](C)NC(=O)[C@@H]1CSSC[C@H](NC(=O)[C@@H](N)CCCCNC(=O)COCCOCCNC(=O)CC[C@H](NC(=O)CCCCCCCCCCCCCCCCCCC(=O)O)C(=O)O)C(=O)N[C@@H](CC(N)=O)C(=O)N[C@@H]([C@@H](C)O)C(=O)N[C@@H](C)C(=O)N[C@@H]([C@@H](C)O)C(=O)N1)[C@@H](C)O)C(=O)N1CCC[C@H]1C(=O)N[C@@H](CO)C(=O)N[C@@H](CO)C(=O)N[C@H](C(=O)N[C@@H](CC(N)=O)C(=O)N[C@H](C(=O)NCC(=O)N1CCC[C@H]1C(=O)N[C@@H](CC(N)=O)C(=O)N[C@H](C(=O)N[C@@H](Cc1ccc(O)cc1)C(N)=O)[C@@H](C)O)C(C)C)[C@@H](C)O
notes: h-amylin derivative; disulfide bridge and C-terminal amide as told for human amylin; also called compound 50
B3: the “hCTR funct. EC50” value turned out to be 0.662 nM.

B4: N^ε1-[2-[2-[2-[[(4S)-4-carboxy-4-(19-carboxynonadecanoylamino)butanoyl]amino]ethoxy]ethoxy]acetyl]-[Arg17,Pro21,Pro27,Glu35]-h-amylin (peptide)
peptide: K([AEEA-γGlu-C20 diacid])CNTATCATQRLANFLRHSSPNFGAIPSSTNVGSETY-NH2
modifications: disulfide 2-7; N-terminus assumed
SMILES: CC[C@H](C)[C@H](NC(=O)[C@H](C)NC(=O)CNC(=O)[C@H](Cc1ccccc1)NC(=O)[C@H](CC(N)=O)NC(=O)[C@@H]1CCCN1C(=O)[C@H](CO)NC(=O)[C@H](CO)NC(=O)[C@H](Cc1c[nH]cn1)NC(=O)[C@H](CCCNC(=N)N)NC(=O)[C@H](CC(C)C)NC(=O)[C@H](Cc1ccccc1)NC(=O)[C@H](CC(N)=O)NC(=O)[C@H](C)NC(=O)[C@H](CC(C)C)NC(=O)[C@H](CCCNC(=N)N)NC(=O)[C@H](CCC(N)=O)NC(=O)[C@@H](NC(=O)[C@H](C)NC(=O)[C@@H]1CSSC[C@H](NC(=O)[C@@H](N)CCCCNC(=O)COCCOCCNC(=O)CC[C@H](NC(=O)CCCCCCCCCCCCCCCCCCC(=O)O)C(=O)O)C(=O)N[C@@H](CC(N)=O)C(=O)N[C@@H]([C@@H](C)O)C(=O)N[C@@H](C)C(=O)N[C@@H]([C@@H](C)O)C(=O)N1)[C@@H](C)O)C(=O)N1CCC[C@H]1C(=O)N[C@@H](CO)C(=O)N[C@@H](CO)C(=O)N[C@H](C(=O)N[C@@H](CC(N)=O)C(=O)N[C@H](C(=O)NCC(=O)N[C@@H](CO)C(=O)N[C@@H](CCC(=O)O)C(=O)N[C@H](C(=O)N[C@@H](Cc1ccc(O)cc1)C(N)=O)[C@@H](C)O)C(C)C)[C@@H](C)O
notes: h-amylin derivative; disulfide bridge and C-terminal amide as told for human amylin; also called compound 26
For B4, the “hCTR funct. EC50” value came out at 6.34 nM.

B5: N^ε1-[2-[2-[2-[[(4S)-4-carboxy-4-(19-carboxynonadecanoylamino)butanoyl]amino]ethoxy]ethoxy]acetyl]-[Arg17,Pro21,Pro27,Pro31]-h-amylin (peptide)
peptide: K([AEEA-γGlu-C20 diacid])CNTATCATQRLANFLRHSSPNFGAIPSSTPVGSNTY-NH2
modifications: disulfide 2-7; N-terminus assumed
SMILES: CC[C@H](C)[C@H](NC(=O)[C@H](C)NC(=O)CNC(=O)[C@H](Cc1ccccc1)NC(=O)[C@H](CC(N)=O)NC(=O)[C@@H]1CCCN1C(=O)[C@H](CO)NC(=O)[C@H](CO)NC(=O)[C@H](Cc1c[nH]cn1)NC(=O)[C@H](CCCNC(=N)N)NC(=O)[C@H](CC(C)C)NC(=O)[C@H](Cc1ccccc1)NC(=O)[C@H](CC(N)=O)NC(=O)[C@H](C)NC(=O)[C@H](CC(C)C)NC(=O)[C@H](CCCNC(=N)N)NC(=O)[C@H](CCC(N)=O)NC(=O)[C@@H](NC(=O)[C@H](C)NC(=O)[C@@H]1CSSC[C@H](NC(=O)[C@@H](N)CCCCNC(=O)COCCOCCNC(=O)CC[C@H](NC(=O)CCCCCCCCCCCCCCCCCCC(=O)O)C(=O)O)C(=O)N[C@@H](CC(N)=O)C(=O)N[C@@H]([C@@H](C)O)C(=O)N[C@@H](C)C(=O)N[C@@H]([C@@H](C)O)C(=O)N1)[C@@H](C)O)C(=O)N1CCC[C@H]1C(=O)N[C@@H](CO)C(=O)N[C@@H](CO)C(=O)N[C@H](C(=O)N1CCC[C@H]1C(=O)N[C@H](C(=O)NCC(=O)N[C@@H](CO)C(=O)N[C@@H](CC(N)=O)C(=O)N[C@H](C(=O)N[C@@H](Cc1ccc(O)cc1)C(N)=O)[C@@H](C)O)C(C)C)[C@@H](C)O
notes: h-amylin derivative; disulfide bridge and C-terminal amide as told for human amylin; also called compound 49
Take B5: the “hCTR funct. EC50” value was determined as 2.39 nM.
